Laboratory results as given in publication PMC3608606, “Arabidopsis DEAD-Box RNA Helicase UAP56 Interacts with Both RNA and DNA as well as with mRNA Export Factors”.

B1: 6xHis-HMGB2 (protein)
chain: MKGAKSKTETRSSKLSVTKKPAKGAGRGKAAAKDPNKPKRPASAFFVFMEDFRETFKKENPKNKSVATVGKAAGDKWKSLSDSEKAPYVAKAEKRKVEYEKNIKAYNKKLEEGPKEDEESDKSVSEVNDEDDAEDGSEEEEDDD
B2: R29ds (dsRNA)
RNA 1: CCUCCUUUUUUCUUUUUUUUUUUUUUUCU
RNA 2: AGAAAAAAAAAAAAAAAGAAAAAAGGAGG
B3: D25ds (dsDNA)
DNA 1: AAAACAAAATAGCACCGTAAAGCAC
DNA 2: GTGCTTTACGGTGCTATTTTGTTTT
B4: 6xHis-MOS11 (protein)
chain: MATNGEKVTATVVNGGGLSTGENPKKIVDLNTTELDRTDDILDGEVKGFSDSGEKKEETDSNGIGSTAGVDSGDISPVDDIQKKIRRAERFGVSVKLTEEEKRNSRAERFGTVAAAVVNGSEGTKKAEELKRKARADRFGVPSATSTTDKTEEEAKKKARLARFGKETKVDSAEENKRKARALRFSKEASADASSDLPEKQIIGKEAAVSGSAA
B5: R25ds (dsRNA)
RNA 1: AAAACAAAAUAGCACCGUAAAGCAC
RNA 2: GUGCUUUACGGUGCUAUUUUGUUUU
B6: D29ds (dsDNA)
DNA 1: CCTCCTTTTTTCTTTTTTTTTTTTTTTCT
DNA 2: AGAAAAAAAAAAAAAAAGAAAAAAGGAGG

What was measured:
[1] = target: T1, GST-UAP56 (Arabidopsis thaliana (Mouse-ear cress), UniProt Q9LFN6); assay: GST pull-down; ATP present
T1 chain: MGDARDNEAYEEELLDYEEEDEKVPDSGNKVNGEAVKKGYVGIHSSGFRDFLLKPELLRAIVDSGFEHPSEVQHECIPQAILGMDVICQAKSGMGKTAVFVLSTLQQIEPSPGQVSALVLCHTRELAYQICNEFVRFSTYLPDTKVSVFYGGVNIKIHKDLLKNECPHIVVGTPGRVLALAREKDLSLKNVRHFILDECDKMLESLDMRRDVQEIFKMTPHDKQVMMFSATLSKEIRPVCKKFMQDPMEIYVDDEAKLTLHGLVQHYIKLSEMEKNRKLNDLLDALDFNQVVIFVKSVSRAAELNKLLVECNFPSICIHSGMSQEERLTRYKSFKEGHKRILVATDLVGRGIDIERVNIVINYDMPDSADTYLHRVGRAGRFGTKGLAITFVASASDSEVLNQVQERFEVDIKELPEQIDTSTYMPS

[2] = target: T2, UAP56 (Arabidopsis thaliana, UniProt Q56XG6 1-427); assay: MST; MST: 50 nM labelled oligonucleotide in EMSA buffer (composition cited, ref 44), 28 C, Hill fit; EMSA: 32P probe, PAGE, same cited protocol; salt and pH not given; settings: protein: recombinant; tags: 6xHis (pQE9); label: fluorescent; blunt
T2 sequence: T1 chain

[3] = target: T2, UAP56; assay: EMSA; 0.25-5 uM protein; two complexes; less efficient than RNA; MST: 50 nM labelled oligonucleotide in EMSA buffer (composition cited, ref 44), 28 C, Hill fit; EMSA: 32P probe, PAGE, same cited protocol; salt and pH not given; settings: protein: recombinant; tags: 6xHis (pQE9); label: 32P; blunt
[4] = target: T2, UAP56; assay: EMSA; 0.25-5 uM protein; single complex; MST: 50 nM labelled oligonucleotide in EMSA buffer (composition cited, ref 44), 28 C, Hill fit; EMSA: 32P probe, PAGE, same cited protocol; salt and pH not given; settings: protein: recombinant; tags: 6xHis (pQE9); label: 32P; blunt
[5] = target: T3, Df31 (Decondensation Factor 31) (Drosophila, UniProt O16043 1-183); assay: MST; up to 411 uM protein; MST: 50 nM labelled oligonucleotide in EMSA buffer (composition cited, ref 44), 28 C, Hill fit; EMSA: 32P probe, PAGE, same cited protocol; salt and pH not given; settings: protein: recombinant; label: fluorescent; blunt
T3 sequence: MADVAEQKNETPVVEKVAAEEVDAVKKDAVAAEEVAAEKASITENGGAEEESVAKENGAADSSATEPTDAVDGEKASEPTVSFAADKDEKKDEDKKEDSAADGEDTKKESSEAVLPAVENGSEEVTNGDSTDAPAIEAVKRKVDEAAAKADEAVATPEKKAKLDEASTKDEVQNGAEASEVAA

Row | Binder | binding result [1] | Kd [2] [µM] | also measured
1 | B1 | no binding |  | 
2 | B2 |  | 51.5 ± 5.3 | 
3 | B3 |  |  | binding result [3]: binds
4 | B4 | binds |  | 
5 | B5 |  |  | binding result [4]: binds
6 | B6 |  | 6.5 ± 0.75 | binding result [5]: no binding
